Results on two molecules are retold here after US20260284150A1, “TOPICAL PROTEIN BASED FORMULATION” (OPTIMUS SALVUS LIMITED, priority 2023, published 2026).

Data set [1] in a line: HEDS (2-hydroxyethyl disulphide) enzyme assay, NADPH consumption at A340 nm. The format is biochemical. To be noted: coupled with glutathione (GSH) and glutathione reductase (GR); versus buffer control without CLIC. Here is the method: The functional activity of the purified CLIC1, CLIC3 and CLIC4 proteins were analysed using the HEDS assay. The assay measures the ability of the CLIC proteins to reduce the HEDS substrate when coupled with glutathione (GSH) and glutathione reductase (GR) resulting in the consumption of NADPH that is monitored at A340 nm.

Data set [2] in a line: CBD dosage optimisation and cell toxicity assay (WST-1). Format: cell-based. The note with it: human; HDF cells, 24 hours incubation, WST-1 reagent, CBD up to 25 μg/mL; read-out: CBD concentrations toxic to human fibroblast cells. Here is the method:
The following reagents were purchased from ThermoFisher: Human Fibroblast Expansion Basal Medium, Low Serum Growth Supplement (LSGS), EpiLife™ Medium with 60 μM calcium, Human Keratinocyte Growth Supplement (HKGS), Trypsin-EDTA (0.05%), phenol red. Fetal Bovine Serum (French Origin) was purchased from Scientifix. Human skin cells: Fibroblasts (HDF) and Keratinocyte (HEK) cells were purchased from Sigma Aldrich and ThermoFisher respectively. HDF cells were grown in Fibroblast media supplemented with 1×LSGS, while HEK cells were grown in Keratinocyte media supplemented with 1×HKGS. Both cell lines were kept in an incubator at 37° C., with 5% CO2.
The human skin cells (HDF and HEK) were cultured in respective media and were grown in T25 flasks until ~70-80% confluent. Once confluent, the cells were washed with 1×PBS and split using 0.05% Trypsin-EDTA solution. The cell pellet was collected and split into a fresh T25 flask and T75 flask containing full growth media at a dilution factor of 1:4 and incubated at 37° C., 5% CO2. Cells were >85-92% viable based on Trypan blue exclusion when seeding and passing. […]
(Formazan colour is commonly taken as a measure of viable cells.)

“CLIC4: purified recombinant human chloride intracellular channel protein 4, expressed in E. coli, GST tag cleaved”: the “enzymatic activity: reduction of HEDS substrate, decrease in absorbance at 340 nm (consumption of NADPH)” value in data set [1] is recorded as “significant enzymatic activity”.
Regarding `C=C(C)[C@@H]1CCC(C)=C[C@H]1c1c(O)cc(CCCCC)cc1O` [CBD, cannabidiol], the MCC at 24 h in data set [2] was more than 4 µg/mL.
